Results from IntAct's records for PubMed 23644599.

B1: mRNA decay activator protein ZFP36 (Homo sapiens), P26651 (parent)
chain: MDLTAIYESLLSLSPDVPVPSDHGGTESSPGWGSSGPWSLSPSDSSPSGVTSRLPGRSTSLVEGRSCGWVPPPPGFAPLAPRLGPELSPSPTSPTATSTTPSRYKTELCRTFSESGRCRYGAKCQFAHGLGELRQANRHPKYKTELCHKFYLQGRCPYGSRCHFIHNPSEDLAAPGHPPVLRQSISFSGLPSGRRTSPPPPGLAGPSLSSSSFSPSSSPPPPGDLPLSPSAFSAAPGTPLARRDPTPVCCPSCRRATPISVWGPLGGLVRTPSVQSLGSDPDEYASSGSSLGGSDSPVFEAGVFAPPQPVAAPRRLPIFNRISVSE

Variants of: B1
Conditions: with CNOT1, A5YKK6-2
CNOT1, A5YKK6-2, sequence (A5YKK6 other isoform, or with tags, fused parts or gaps): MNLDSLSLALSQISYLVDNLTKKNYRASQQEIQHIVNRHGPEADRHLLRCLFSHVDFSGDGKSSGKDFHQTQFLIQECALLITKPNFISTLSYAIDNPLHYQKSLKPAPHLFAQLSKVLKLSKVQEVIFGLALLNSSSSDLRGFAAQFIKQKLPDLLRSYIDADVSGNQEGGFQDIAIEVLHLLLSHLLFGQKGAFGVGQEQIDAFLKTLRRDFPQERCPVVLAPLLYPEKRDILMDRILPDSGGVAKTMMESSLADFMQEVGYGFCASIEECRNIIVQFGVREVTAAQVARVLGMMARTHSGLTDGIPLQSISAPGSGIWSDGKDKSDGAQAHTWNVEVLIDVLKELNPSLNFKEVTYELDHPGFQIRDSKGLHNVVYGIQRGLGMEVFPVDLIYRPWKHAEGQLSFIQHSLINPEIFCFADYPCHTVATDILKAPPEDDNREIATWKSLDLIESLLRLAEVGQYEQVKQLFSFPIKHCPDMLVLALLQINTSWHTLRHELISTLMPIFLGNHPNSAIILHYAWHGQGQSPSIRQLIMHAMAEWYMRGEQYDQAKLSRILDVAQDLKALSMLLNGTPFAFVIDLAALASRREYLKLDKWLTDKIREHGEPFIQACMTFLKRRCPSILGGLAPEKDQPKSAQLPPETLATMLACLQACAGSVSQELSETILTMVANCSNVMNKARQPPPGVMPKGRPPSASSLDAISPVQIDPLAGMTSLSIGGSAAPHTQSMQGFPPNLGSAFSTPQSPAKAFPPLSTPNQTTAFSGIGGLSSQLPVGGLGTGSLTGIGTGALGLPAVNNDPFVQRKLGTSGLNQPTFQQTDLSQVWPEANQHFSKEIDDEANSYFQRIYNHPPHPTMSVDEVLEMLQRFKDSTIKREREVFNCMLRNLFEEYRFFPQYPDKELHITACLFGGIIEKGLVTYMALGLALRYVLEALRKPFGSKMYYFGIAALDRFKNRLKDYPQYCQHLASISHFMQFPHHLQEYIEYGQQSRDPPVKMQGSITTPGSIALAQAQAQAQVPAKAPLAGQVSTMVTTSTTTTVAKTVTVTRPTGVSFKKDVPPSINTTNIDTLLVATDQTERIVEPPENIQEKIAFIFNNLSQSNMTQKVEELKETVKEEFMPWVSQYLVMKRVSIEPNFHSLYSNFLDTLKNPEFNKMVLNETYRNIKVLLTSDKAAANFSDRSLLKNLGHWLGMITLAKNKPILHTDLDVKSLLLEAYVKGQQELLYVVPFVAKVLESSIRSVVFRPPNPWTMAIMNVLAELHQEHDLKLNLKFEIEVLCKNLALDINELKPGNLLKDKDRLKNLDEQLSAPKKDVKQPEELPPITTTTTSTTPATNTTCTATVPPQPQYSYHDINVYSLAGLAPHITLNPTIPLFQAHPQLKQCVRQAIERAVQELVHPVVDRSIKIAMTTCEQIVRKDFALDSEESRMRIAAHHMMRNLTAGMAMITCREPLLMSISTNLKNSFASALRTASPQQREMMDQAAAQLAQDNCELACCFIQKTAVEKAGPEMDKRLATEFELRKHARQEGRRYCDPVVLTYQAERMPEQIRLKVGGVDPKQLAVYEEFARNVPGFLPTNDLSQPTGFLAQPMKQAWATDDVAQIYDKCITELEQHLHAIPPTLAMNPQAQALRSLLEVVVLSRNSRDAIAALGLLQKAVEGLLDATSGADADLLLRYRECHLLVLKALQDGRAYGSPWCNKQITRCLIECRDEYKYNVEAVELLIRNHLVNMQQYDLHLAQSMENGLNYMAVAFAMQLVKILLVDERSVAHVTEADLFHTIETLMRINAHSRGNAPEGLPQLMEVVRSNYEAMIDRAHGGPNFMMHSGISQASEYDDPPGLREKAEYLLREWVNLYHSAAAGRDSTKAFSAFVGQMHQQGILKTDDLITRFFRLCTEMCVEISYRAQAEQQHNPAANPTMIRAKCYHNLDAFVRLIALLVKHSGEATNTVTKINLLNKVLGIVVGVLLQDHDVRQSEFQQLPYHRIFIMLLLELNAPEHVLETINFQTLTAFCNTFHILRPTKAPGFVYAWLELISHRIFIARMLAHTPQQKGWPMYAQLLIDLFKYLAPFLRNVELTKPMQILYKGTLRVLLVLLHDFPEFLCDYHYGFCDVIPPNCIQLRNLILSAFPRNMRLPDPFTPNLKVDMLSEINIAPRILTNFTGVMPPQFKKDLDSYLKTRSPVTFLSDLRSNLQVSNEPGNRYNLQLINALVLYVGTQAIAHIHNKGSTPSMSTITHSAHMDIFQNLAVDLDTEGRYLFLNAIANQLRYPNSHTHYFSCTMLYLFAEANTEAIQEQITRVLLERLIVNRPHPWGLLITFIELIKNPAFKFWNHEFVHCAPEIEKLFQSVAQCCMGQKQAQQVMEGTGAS

effect of a mutation on the interaction	Variant
disrupting interaction strength	F319A

Variants of: B1
Conditions: with CNOT1, A5YKK6-2
Remark: another data set of the same source

effect of a mutation on the interaction	Variant
disrupting interaction strength	R315A
